{"source": "patent KR20240007815A", "about": "(dated 2024)", "molecules": {"B1": {"name": "인간 BDCA-2에 결합하는 마우스 단일클론 항체 201A (antibody, mouse IgG2a, kappa, V domains shown)", "VH": "DVKLVESGGGLVKPGGSLNLSCAASGFTFSSYTMSWVRQNPEKRLEWVATISSGGSYTYYPDSVKGRFTISRDNAKNTLYLQMSSLKSEDTAMYYCTRDRGDYDYDEGYYFDYWGQGTTLTVSS", "VL": "NIVLTQSPASLAVSLGQRATISCRASASVDSYGNSFMHWYQQKPGQPPKLLIYLASNLESGVPARFSGSGSRTDFTLTIDPVEADDAATYYCQQNNEDPRTFGGGTKLEIKR"}, "B2": {"name": "201A 인간화 항체 201H (antibody, human IgG1, kappa, V domains shown)", "VH": "EVQLVESGGGLVKPGGSLRLSCAASGFTFSSYTMSWVRQAPGKGLEWVATISSGGSYTYYPDSVKGRFTISRDNAKNSLYLQMNSLRAEDTAVYYCTRDRGDYDYDEGYYFDYWGQGTLVTVSS", "VL": "DIVLTQSPASLAVSPGQRATITCRASASVDSYGNSFMHWYQQKPGQPPKLLIYLASNLESGVPARFSGSGSRTDFTLTINPVEANDTANYYCQQNNEDPRTFGGGTKVEIKR", "notes": "Humanised antibody made in Expi293 cells, purified on protein G; detected with anti-human IgG Fc"}, "B3": {"name": "201A 키메라 항체 201C (antibody, human IgG1, kappa, V domains shown)", "VH": "DVKLVESGGGLVKPGGSLNLSCAASGFTFSSYTMSWVRQNPEKRLEWVATISSGGSYTYYPDSVKGRFTISRDNAKNTLYLQMSSLKSEDTAMYYCTRDRGDYDYDEGYYFDYWGQGTTLTVSS", "VL": "NIVLTQSPASLAVSLGQRATISCRASASVDSYGNSFMHWYQQKPGQPPKLLIYLASNLESGVPARFSGSGSRTDFTLTIDPVEADDAATYYCQQNNEDPRTFGGGTKLEIKR", "notes": "Chimeric antibody made in Expi293 cells, purified on protein G; detected with anti-human IgG Fc"}}, "key": {"[1]": {"biological_target": "인간 BDCA-2 (Blood dendritic cell antigen 2, CLEC4C) (human) (UniProt Q8WTT0)", "test": "flow cytometry, double staining of human PBMC with anti-CD123 and anti-BDCA-2"}, "[2]": {"biological_target": "인간 BDCA-2 (Blood dendritic cell antigen 2, CLEC4C) (human) (UniProt Q8WTT0)", "test": "flow cytometry, double staining of human PBMC with anti-CD123 and 201A"}, "[3]": {"biological_target": "T1, 인간 BDCA-2 (Blood dendritic cell antigen 2, CLEC4C) (human, UniProt Q8WTT0 1-213)", "T1 construct": "whole, on cells; also called human BDCA-2", "T1 sequence (looked up)": "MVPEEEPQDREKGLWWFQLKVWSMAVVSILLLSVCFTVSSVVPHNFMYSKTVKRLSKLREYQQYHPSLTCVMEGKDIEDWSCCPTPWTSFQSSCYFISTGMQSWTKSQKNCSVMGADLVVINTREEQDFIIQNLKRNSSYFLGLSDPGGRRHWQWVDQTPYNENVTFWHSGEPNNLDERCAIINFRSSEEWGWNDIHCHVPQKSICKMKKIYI", "test": "flow cytometry on 293 cells expressing human BDCA-2, anti-human IgG-APC secondary"}}, "data": [{"molecule": "anti-BDCA-2 (AC144, Miltenyi) (antibody)", "values": [{"measurement": "% CD123+ BDCA-2+ 세포 (donor-1 PBMC)", "setting": "[1]", "result": 0.51, "unit": "%"}, {"measurement": "% CD123+ BDCA-2+ 세포 (donor-2 PBMC)", "setting": "[1]", "result": 0.15, "unit": "%"}]}, {"molecule": "B1", "values": [{"measurement": "% CD123+ BDCA-2+ 세포 (donor-1 PBMC)", "setting": "[2]", "result": 0.65, "unit": "%"}, {"measurement": "% CD123+ BDCA-2+ 세포 (donor-2 PBMC)", "setting": "[2]", "result": 0.16, "unit": "%"}]}, {"molecule": "B2", "values": [{"measurement": "binding result", "setting": "[3]", "result": "binds"}]}, {"molecule": "B3", "values": [{"measurement": "binding result", "setting": "[3]", "result": "binds"}]}]}
